Experimental data from US20150037829A1 (MIT, published 2015).

Molecular target: the molecule itself
Assay: gel filtration chromatography, self-association
Method: APX, fluorescent protein, or miniSOG preparations were diluted to the desired concentrations using chilled (4° C.) PBS and then allowed to incubate at room temperature for 30 min to overnight. Samples ([…]) were run on a Waters HPLC system over a Superdex 75 10/300 column (GE Healthcare) that had been pre-equilibrated in PBS, pH 7.4. Samples were run isocratically in PBS at a flow rate of 0.5 mL/min. Elution of APX was monitored at 280 nm and 405 nm (heme absorbance). Empower software (Waters) was used for analysis of elution profiles. Apparent MWs were determined against low molecular weight standards (GE). […] This estimation was applied for all proteins in FIG. 4d except wt APX, which was predominantly dimeric at 0.25 μM. The apparent MW of the monomer for wt APX was assumed to be equal to the apparent MW of mAPX at 0.25 μM.

B1: wild-type pea cytosolic ascorbate peroxidase (APX), N-terminally His6-tagged (enzyme)
chain: RGKSYPTVSPDYQKAIEKAKRKLRGFIAEKKCAPLILRLAWHSAGTFDSKTKTGGPFGTIKHQAELAHGANNGLDIAVRLLEPIKEQFPIVSYADFYQLAGVVAVEITGGPEVPFHPGREDKPEPPPEGRLPDATKGSDHLRDVFGKAMGLSDQDIVALSGGHTIGAAHKERSGFEGPWTSNPLIFDNSYFTELLTGEKDGLLQLPSDKALLTDSVFRPLVEKYAADEDVFFADYAEAHLKLSELGFAEA
modifications: heme cofactor (non-covalent)
notes: the entries describe its self-association (homodimer) in gel filtration; also called wt APX; wtAPX; not shown: N-terminal His6-tag
binding result: binds
